The target in test [1] is SDF-1α (stromal cell-derived factor-1 alpha) (Felis catus (Cat) (Felis silvestris catus)) (UniProt O62657). The test can be described thus: SPR, Fab (about 1250 RU) on anti-CH1 chip, saturating SDF-1α (Figure 5: 1D3). (Surface plasmon resonance follows binding to a sensor surface in real time, without labels.)
For test [2] the target is unchanged. The test can be described thus: SPR, calculated as (RU SDF-1α/RU Fab)*(M.Wt Fab/M.Wt SDF-1α), Fab on anti-CH1 chip (Figure 5: 1D3).

Sequence of SDF-1α (stromal cell-derived factor-1 alpha) (Felis catus (Cat) (Felis silvestris catus)) (O62657 22-89 limits assumed): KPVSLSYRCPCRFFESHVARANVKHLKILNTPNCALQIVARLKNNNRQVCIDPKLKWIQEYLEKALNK

B1: 1D3 Fab (Fab, V domains shown)
VH: EVQLVQSGAEVKKPGASVKVSCKVSGYTLTKLSVHWVRQAPGKGLEWMGSFDPEDGETIYSQRFQGRVTMTEDTSTDTAYMELTSLRSEDTAVYYCATEGQWLVAYYGMDVWGQGTTVTVSS
VL: EIVLTQSPSSLSASVGDRVTITCRASQGISSALAWYQQKPGKAPKLLIYDASSLESGVPSRFSGSGSGTDFTLTISSLQPEDFATYYCQQFNSYPLTFGGGTKVEIK
In test [1], B1 had an RUSDF-1α (response units of SDF-1α bound) of 350 RU. Further, in test [2], the stoichiometry (molecules of SDF-1α bound per Fab molecule) (molecules of SDF-1α per Fab molecule) was 1.75.

The values are drawn from patent publication WO2008021263A2.
